From the supplement of paper PMC10126150
± gives the standard deviation of the averaged measurements.

Tested on: ATP
Assay: switch fluorescence ratio, 500 uM ATP over buffer (Cy3 cluster intensity, sum of 5 cycles each) (fold (ratio)); higher = stronger signal-on switching upon ATP binding; sequences stand for … in TCGTCGGCAGCGTCAGATGTGTATAAGAGACAGTTTTTTTTTTTTTTTTTTTTTTTTT…TC
Details: aptamer strand: ATP DNA aptamer (quencher-CACCTGGGGGAGTATTGCGGAGGAAGG + anchor), 100 nM annealed; ATP concentration: 500 uM
How it was run: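 For every switch-domain sequence, the fluorescence ratio is the mean of per-cluster values, each being summed target-cycle Cy3 intensity over summed buffer-cycle Cy3 intensity. Clusters outside 100-1000 RFU were excluded. On a modified Illumina MiSeq flow-cell, the Cy3-labelled switching-strand clusters were annealed to 100 nM quencher-labelled ATP aptamer, imaged in selection buffer and then after 15 min with 500 uM ATP at 22 °C. Five such cycles were run, with NaOH stripping and re-annealing between them.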
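Also: ATP exposure 15 min at 22 °C before imaging.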

TTGAGGTGCA and TTGAGGTGGG are within error of each other in switch fluorescence ratio: 0.992 ± 0.025 for the first, 1.23 ± 0.41 for the second.

TTGAGGTTCG and TTGAGGTTGA are within error of each other in switch fluorescence ratio: 1.05 ± 0.14 for the first, 0.994 ± 0.029 for the second.

TTGAGTATTT and TTGAGTCCGT are within error of each other in switch fluorescence ratio: 0.98182 ± 0.00089 for the first, 1.05 ± 0.075 for the second.

TTGAGTCGGA and TTGAGTGAAT are within error of each other in switch fluorescence ratio: 1.42 ± 0.7 for the first, 1 ± 0.042 for the second.

TTGAGTGTTA and TTGAGTGTTT are within error of each other in switch fluorescence ratio: 1.01 ± 0.011 for the first, 1.02 ± 0.017 for the second.

TTGAGTTGTT and TTGAGTTTTT are within error of each other in switch fluorescence ratio: 1.02 ± 0.082 for the first, 0.987 ± 0.024 for the second.

TTGATACCTA and TTGATAGGTC are within error of each other in switch fluorescence ratio: 1.04 ± 0.038 for the first, 1.01 ± 0.04 for the second.

TTGATCTT and TTGATCTTAG are within error of each other in switch fluorescence ratio: 1.008 ± 0.0042 for the first, 1.02 ± 0.018 for the second.

Going from TTGATCTTGG to TTGATGCGTG, the switch fluorescence ratio falls from 1.04 ± 0.013 to 0.9661 ± 0.0063.

TTGATGGGGT and TTGATGGTCA are within error of each other in switch fluorescence ratio: 1.03 ± 0.1 for the first, 0.943 ± 0.041 for the second.

TTGATGTAAA and TTGATTAGAT are within error of each other in switch fluorescence ratio: 0.997 ± 0.033 for the first, 1.014 ± 0.0016 for the second.

TTGATTGGTC and TTGATTGTGG are within error of each other in switch fluorescence ratio: 1.05 ± 0.019 for the first, 1.03 ± 0.059 for the second.

First: TTGATTGTTG
Second: TTGATTTCGA
The switch fluorescence ratio of the first is lower: 0.982 ± 0.013 for the first, 1.06 ± 0.019 for the second.

TTGATTTTCA and TTGCAAAAAT are within error of each other in switch fluorescence ratio: 0.999 ± 0.015 for the first, 1 ± 0.046 for the second.

First: TTGCAAGTTT
Second: TTGCACACGC
The switch fluorescence ratio of the first is lower: 0.9811 ± 0.00083 for the first, 1.26 ± 0.08 for the second.

Compared with TTGCACGGGC, TTGCACTAAC is higher in switch fluorescence ratio: 1.007 ± 0.0052 for the first, 1.22 ± 0.05 for the second.

TTGCAGCTTA and TTGCAGGGGG are within error of each other in switch fluorescence ratio: 1.05 ± 0.035 for the first, 0.998 ± 0.027 for the second.

TTGCAGGTTT and TTGCATCGGG are within error of each other in switch fluorescence ratio: 1.11 ± 0.18 for the first, 0.9891 ± 0.0034 for the second.

TTGCATGAGG and TTGCATGGAA are the same in switch fluorescence ratio: 1.01 ± 0.078 for the first, 1.01 ± 0.0049 for the second.

Going from TTGCCATGTT to TTGCCCCGGC, the switch fluorescence ratio rises from 0.978 ± 0.036 to 1.04 ± 0.016.

First: TTGCCCGAA
Second: TTGCCGCAGC
The switch fluorescence ratio of the first is lower: 1.01 ± 0.043 for the first, 1.49 ± 0.054 for the second.

TTGCCGGGGC and TTGCCGTGTT are within error of each other in switch fluorescence ratio: 0.998 ± 0.017 for the first, 1.02 ± 0.016 for the second.

TTGCCTGTG and TTGCGACGGT are within error of each other in switch fluorescence ratio: 1.03 ± 0.033 for the first, 1.02 ± 0.023 for the second.

TTGCGAGGGC and TTGCGATTTT are within error of each other in switch fluorescence ratio: 1 ± 0.028 for the first, 0.993 ± 0.028 for the second.

Compared with TTGCGCAATT, TTGCGCCTTT is lower in switch fluorescence ratio: 1.51 ± 0.47 for the first, 1.03 ± 0.0099 for the second.

TTGCGGACCA and TTGCGGGGG are within error of each other in switch fluorescence ratio: 0.996 ± 0.043 for the first, 1.01 ± 0.017 for the second.

TTGCGGGGGT and TTGCGGTGCG are within error of each other in switch fluorescence ratio: 1 ± 0.054 for the first, 1.01 ± 0.062 for the second.

TTGCGTAGCA and TTGCGTAGGC are within error of each other in switch fluorescence ratio: 0.977 ± 0.02 for the first, 0.994 ± 0.034 for the second.

TTGCGTAGTT and TTGCGTGTTG are the same in switch fluorescence ratio: 1.01 ± 0.029 for the first, 1.01 ± 0.019 for the second.

Going from TTGCGTTGTT to TTGCTAAAAA, the switch fluorescence ratio rises from 0.9695 ± 0.0043 to 1.04 ± 0.03.

Going from TTGCTAAAGG to TTGCTAAATG, the switch fluorescence ratio rises from 0.964 ± 0.016 to 1 ± 0.013.

First: TTGCTAAGCG
Second: TTGCTACCAC
The switch fluorescence ratio of the first is lower: 1.02 ± 0.012 for the first, 1.07 ± 0.036 for the second.

TTGCTCATAT and TTGCTCCTTT are the same in switch fluorescence ratio: 1.02 ± 0.049 for the first, 1.02 ± 0.03 for the second.

TTGCTCTTTG and TTGCTGAGAC are within error of each other in switch fluorescence ratio: 1.0058 ± 0.00073 for the first, 1.24 ± 0.3 for the second.

First: TTGCTGAGCC
Second: TTGCTGGGAT
The switch fluorescence ratio of the first is lower: 0.96 ± 0.024 for the first, 1.02 ± 0.012 for the second.

TTGCTGGTCA and TTGCTTGAGA are within error of each other in switch fluorescence ratio: 0.9897 ± 0.0042 for the first, 0.996 ± 0.028 for the second.

TTGGAAACAG and TTGGAAGAGT are within error of each other in switch fluorescence ratio: 1 ± 0.014 for the first, 0.9941 ± 0.0083 for the second.

TTGGAAGCTT and TTGGAAGGTT are within error of each other in switch fluorescence ratio: 1.23 ± 0.22 for the first, 1.32 ± 0.42 for the second.

In the case of TTGGAATTTT, the switch fluorescence ratio is reported as 1.03 ± 0.031.
